Experimental data published in doi:10.1101/2023.12.07.570558 (bioRxiv, 2023).
Positions count from the first letter of the chain named.

T1: His-tagged SIRT1 (bacterially expressed) (human, UniProt Q96EB6)
T1 sequence: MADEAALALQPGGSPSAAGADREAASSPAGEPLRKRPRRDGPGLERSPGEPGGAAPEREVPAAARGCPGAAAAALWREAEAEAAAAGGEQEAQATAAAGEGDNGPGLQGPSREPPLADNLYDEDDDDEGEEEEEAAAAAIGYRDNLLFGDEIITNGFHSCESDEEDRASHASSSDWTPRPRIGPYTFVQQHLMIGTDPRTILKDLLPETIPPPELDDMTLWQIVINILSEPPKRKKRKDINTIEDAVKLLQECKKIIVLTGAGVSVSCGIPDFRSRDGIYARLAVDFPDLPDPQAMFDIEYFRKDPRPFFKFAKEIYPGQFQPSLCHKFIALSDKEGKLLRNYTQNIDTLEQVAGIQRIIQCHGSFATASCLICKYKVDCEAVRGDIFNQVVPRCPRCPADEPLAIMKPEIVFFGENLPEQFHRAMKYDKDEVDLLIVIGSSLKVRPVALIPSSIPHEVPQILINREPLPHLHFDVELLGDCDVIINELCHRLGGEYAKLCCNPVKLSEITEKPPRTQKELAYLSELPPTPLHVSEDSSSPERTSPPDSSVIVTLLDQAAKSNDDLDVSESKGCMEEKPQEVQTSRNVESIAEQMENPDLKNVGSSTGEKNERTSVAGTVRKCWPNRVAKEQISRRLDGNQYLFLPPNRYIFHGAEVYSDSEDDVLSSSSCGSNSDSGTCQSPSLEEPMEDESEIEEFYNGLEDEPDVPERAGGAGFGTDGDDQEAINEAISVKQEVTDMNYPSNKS

B1: His-tagged TULP3 (bacterially expressed) (natural protein)
chain: MEASRCRLSPSGDSVFHEEMMKMRQAKLDYQRLLLEKRQRKKRLEPFMVQPNPEARLRRAKPRASDEQTPLVNCHTPHSNVILHGIDGPAAVLKPDEVHAPSVSSSVVEEDAENTVDTASKPGLQERLQKHDISESVNFDEETDGISQSACLERPNSASSQNSTDTGTSGSATAAQPADNLLGDIDDLEDFVYSPAPQGVTVRCRIIRDKRGMDRGLFPTYYMYLEKEENQKIFLLAARKRKKSKTANYLISIDPVDLSREGESYVGKLRSNLMGTKFTVYDRGICPMKGRGLVGAAHTRQELAAISYETNVLGFKGPRKMSVIIPGMTLNHKQIPYQPQNNHDSLLSRWQNRTMENLVELHNKAPVWNSDTQSYVLNFRGRVTQASVKNFQIVHKNDPDYIVMQFGRVADDVFTLDYNYPLCAVQAFGIGLSSFDSKLACE
B2: His-tagged TULP3-4G (natural protein)
chain: B1 chain with Y193G, P195G, K333G, P336G

Target: T1, His-tagged SIRT1 (bacterially expressed)
Assay: SEC

| Binder | binding result |
| --- | --- |
| B1 | binds |
| B2 | binds |
